# Reference: patent US20240287172A1 (SCIRHOM, published 2024)
# T1: hiR2-FL-G587N-T7 (human, UniProt Q6PJF5 1-856)
# T1 sequence: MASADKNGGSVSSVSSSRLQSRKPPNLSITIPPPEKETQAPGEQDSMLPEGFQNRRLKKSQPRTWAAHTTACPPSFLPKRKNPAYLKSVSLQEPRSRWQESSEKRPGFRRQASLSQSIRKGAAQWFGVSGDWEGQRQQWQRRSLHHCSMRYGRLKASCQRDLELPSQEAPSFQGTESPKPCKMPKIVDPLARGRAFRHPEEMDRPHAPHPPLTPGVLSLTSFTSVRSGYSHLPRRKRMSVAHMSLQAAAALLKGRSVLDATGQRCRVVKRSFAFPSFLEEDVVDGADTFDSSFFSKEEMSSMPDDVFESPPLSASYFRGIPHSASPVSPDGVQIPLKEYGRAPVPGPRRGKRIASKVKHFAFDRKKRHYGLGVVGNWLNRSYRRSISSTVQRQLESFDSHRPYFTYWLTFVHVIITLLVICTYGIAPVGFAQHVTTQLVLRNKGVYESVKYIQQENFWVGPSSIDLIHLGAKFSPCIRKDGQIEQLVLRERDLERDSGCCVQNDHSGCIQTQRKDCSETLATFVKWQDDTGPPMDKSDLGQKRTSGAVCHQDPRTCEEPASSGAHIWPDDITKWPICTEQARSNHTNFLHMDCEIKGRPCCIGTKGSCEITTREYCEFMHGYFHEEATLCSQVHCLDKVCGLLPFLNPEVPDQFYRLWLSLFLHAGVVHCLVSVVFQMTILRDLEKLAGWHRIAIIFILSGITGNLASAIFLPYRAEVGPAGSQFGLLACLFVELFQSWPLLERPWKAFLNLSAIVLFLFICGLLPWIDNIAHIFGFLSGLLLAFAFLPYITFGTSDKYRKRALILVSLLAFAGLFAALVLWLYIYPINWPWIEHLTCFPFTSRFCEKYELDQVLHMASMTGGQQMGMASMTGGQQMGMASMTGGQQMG
# B1: antibody 43 (antibody, V domains shown)
# VH: QVALKESGPGILQPSQTLSLTCSFSGFSLSTFGMGVGWIRQSSGKGLEWLANIWWDDDKYYNPALKSRLTISKDASKNQAFLKIANVDTADTATYYCARIGNYGSNYWYFDVWGTGTTVTVSS
# VL: QIVLTQSPAIMSASPGERVTMTCSANSRISYMYWYQQKPGSSPRLLIYDTSNLASGVPVRFSGSGSGTSYSLTISRMEAEDAATYNCQQWSSYPLTFGAGTKLELK
# notes: mouse IgG, kappa light chain; also called clone #43; purified antibody 43
# B2: antibody 48 (antibody, V domains shown)
# VH: QVQLQQSGTELVRPGTSVKVSCKASGYAFTNYLIEWVKQRPGQGLEWIGVINPGSGFTKYNEKFKGKATLTADKSSSTVYMHLSSLTSEDSAVYFCARGLYRAMDYWGQGTSVTVSS
# VL: DIQMTQSPASQSASLGESVTITCLASQTIATWLAWYQQKPGKSPQLLIYGATTLADGVPSRFSGGGSGTKFSFKISSLQAEDFVSYYCQQLYSTPYTFGGGTKLEIK
# notes: mouse IgG, kappa light chain; also called clone #48; purified antibody 48
# B3: antibody 50 (antibody, V domains shown)
# VH: QVQLQQSGAELVRPGASVKVSCKASGYAFSNYLIEWVKQRPGQGLEWIGVINPGSGFTKYNEKFKGKATLTADKSSSTAYMQLSSLTSEDSAVYFCARGLYRAMDYWGQGTSVTVSS
# VL: DIQMTQSPASQSASLGESVTITCLASQTIGTWLAWYQQKPGKSPQLLIYAAASLADGVPSRFSGGGSGTKFSFKISSLQAEDFVNYYCQQIYSTPYTFGGGTKLEIK
# notes: mouse IgG, kappa light chain; also called clone #50; purified antibody 50
# Biological target: T1, hiR2-FL-G587N-T7
# Test: FACS, MEF-DKO cells, 3 µg/ml
# Source text: In brief, immortalized MEF-DKO hiR2-FL-G563D-T7, MEF-DKO hiR2-FL-A564P-T7, MEF-DKO hiR2-FL-1566E-T7, MEF-DKO hiR2-FL-D569E-T7, MEF-DKO hiR2-FL-E579K-T7, MEF-DKO hiR2-FL-Q580N-T7, MEF-DKO hiR2-FL-A581S-T7, MEF-DKO hiR2-FL-R582A-T7, MEF-DKO hiR2-FL-S583G-T7, MEF-DKO hiR2-FL-G587N-T7, MEF-DKO hiR2-FL-F588H-T7, MEF-DKO hiR2-FL-L589P-T7, MEF-DKO hiR2-FL-E594V-T7, MEF-DKO hiR2-FL-K596T-T7, MEF-DKO hiR2-FL-S607R-T7, MEF-DKO hiR2-FL-T612S-T7, MEF-DKO hiR2-FL-E617D-T7, MEF-DKO hiR2-FL-H620R-T7, MEF-DKO hiR2-FL-L636M-T7, MEF-DKO hiR2-FL-K638D-T7, MEF-DKO hiR2-FL-1771F-T7, MEF-DKO hiR2-FL-1825V-T7, MEF-DKO hiR2-FL-1828V-T7, MEF-DKO hiR2-FL-N829R-T7, MEF-DKO hiR2-FL-W830C-T7, MEF-DKO hiR2-FL-P831E-T7, MEF-DKO hiR2-FL-I833C-T7, MEF-DKO hiR2-FL-H835F-T7, MEF-DKO hiR2-FL-F8391-T7, MEF-DKO hiR2-FL-S843D-T7, MEF-DKO hiR2-FL-Q853A-T7, MEF-DKO hiR2-FL-V854Q-T7 and MEF-DKO hiR2-FL-R844K-T7 cells were harvested with 10 mM EDTA in PBS, washed and resuspended in FACS buffer (PBS, 3% FBS, 0.05% sodium azide), and seeded in Nunc U-bottom 96-well plates (Thermo Fisher Scientific, USA) at approximately 1×10⁵ cells per well. To pellet cells and remove supernatants, the plates were centrifuged at 1,500 rpm and 4° C. for 3 minutes. For primary staining, cells were resuspended in 100 μl per well of either FACS buffer alone (controls) or the purified antibodies 3, 5, 16, 22, 34, 42, 43, 44, 48, and 50 of the invention at 3 μg/ml in FACS buffer and incubated on ice for 1 hour. Afterwards, plates were centrifuged at 1,500 rpm and 4° C. for 3 minutes and washed twice with 200 μl per well of FACS buffer. For secondary staining, cells were spun down and resuspended in 100 μl per well of PE-conjugated goat anti-mouse IgG F(ab′)2 detection fragment (Dianova, Germany) diluted 1:100 in FACS buffer. Protected from light, the cell suspensions were incubated on ice for 1 hour. Plates were then centrifuged at 1,500 rpm and 4° C. for 3 minutes and washed three times with 200 μl per well of FACS buffer. Finally, cells were resuspended in 150 μl per well of FACS buffer and analyzed using a BD Accuri™ C6 Plus flow cytometer (Becton Dickinson, Germany).
row,Binder,loss of binding vs wild type
1,B1,≥ 30%
2,B2,≥ 60%
3,B3,≥ 60%
